One block for each binder: values may come before it.
How the values were obtained:
Experiment in all cases: two-hybrid library CCmax;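 also: natural log of median RNA to DNA barcode read ratio; higher means stronger binding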
O8-AA = biological target: T1, O8-AA; details: mean of both orientations
T1 chain: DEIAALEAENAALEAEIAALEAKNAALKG

O7-AA = biological target: T2, O7-AA; details: mean of both orientations
T2 chain: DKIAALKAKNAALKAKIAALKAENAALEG

O5-AA = biological target: T3, O5-AA; details: mean of both orientations
T3 chain: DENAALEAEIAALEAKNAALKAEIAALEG

P10-AA = biological target: T4, P10-AA; details: mean of both orientations
T4 chain: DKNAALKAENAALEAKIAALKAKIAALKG

P9-AA = biological target: T5, P9-AA; details: mean of both orientations
T5 chain: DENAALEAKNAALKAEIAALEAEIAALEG

O3-AA = biological target: T6, O3-AA
T6 chain: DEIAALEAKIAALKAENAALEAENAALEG

O6-AA = biological target: T7, O6-AA; details: mean of both orientations
T7 chain: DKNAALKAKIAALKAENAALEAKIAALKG

O4-AA = biological target: T8, O4-AA; details: mean of both orientations
T8 chain: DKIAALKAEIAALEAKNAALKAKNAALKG

4H3049-AA = biological target: T9, 4H3049-AA; details: mean of both orientations
T9 chain: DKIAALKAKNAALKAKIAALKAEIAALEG

4H3905-AA = biological target: T10, 4H3905-AA; details: mean of both orientations
T10 chain: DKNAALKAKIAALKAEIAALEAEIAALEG

O11-AA = biological target: T11, O11-AA; details: mean of both orientations
T11 chain: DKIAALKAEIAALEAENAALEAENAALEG

4H_BCR = biological target: T12, 4H_BCR; details: mean of both orientations
T12 chain: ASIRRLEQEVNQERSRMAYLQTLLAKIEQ

GCN2_T = details: mean of both orientations
4H3590-AA = biological target: T13, 4H3590-AA; details: mean of both orientations
T13 chain: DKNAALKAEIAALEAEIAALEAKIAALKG

4H2888-AA = biological target: T14, 4H2888-AA
T14 chain: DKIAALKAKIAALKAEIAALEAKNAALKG

4H3625-AA = biological target: T15, 4H3625-AA; details: mean of both orientations
T15 chain: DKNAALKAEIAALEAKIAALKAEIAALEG

4H43-AA = biological target: T16, 4H43-AA; details: mean of both orientations
T16 chain: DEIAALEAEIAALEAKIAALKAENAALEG

4H3587-AA = biological target: T17, 4H3587-AA; details: mean of both orientations
T17 chain: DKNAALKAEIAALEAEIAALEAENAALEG

4H337-AA = biological target: T18, 4H337-AA; details: mean of both orientations
T18 chain: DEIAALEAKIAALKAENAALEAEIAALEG

O13-AA = biological target: T19, O13-AA; details: mean of both orientations
T19 chain: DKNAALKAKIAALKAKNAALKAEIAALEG

4H_APH = biological target: T20, 4H_APH; details: mean of both orientations
T20 chain: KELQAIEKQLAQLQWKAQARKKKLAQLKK

4H451-AA = biological target: T21, 4H451-AA; details: mean of both orientations
T21 chain: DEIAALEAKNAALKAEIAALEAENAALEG

4H_GCN4 = biological target: 4H_GCN4
4H384-AA = biological target: T22, 4H384-AA; details: mean of both orientations
T22 chain: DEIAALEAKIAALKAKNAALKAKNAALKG

O14-AA = biological target: T23, O14-AA; details: mean of both orientations
T23 chain: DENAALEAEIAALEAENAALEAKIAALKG

4H510-AA = biological target: T24, 4H510-AA; details: mean of both orientations
T24 chain: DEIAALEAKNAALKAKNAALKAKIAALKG

4H4038-AA = biological target: T25, 4H4038-AA; details: mean of both orientations
T25 chain: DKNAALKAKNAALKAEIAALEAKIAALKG

4H_GCN4, sequence (chain, as listed by the source): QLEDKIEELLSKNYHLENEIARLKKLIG

interaction score (O8-AA): -1.37
interaction score (O7-AA): -1.4
interaction score (O5-AA): -1.22
interaction score (P10-AA): -1.06
interaction score (P9-AA): -0.88
interaction score (O3-AA): -0.811
interaction score (O6-AA): -0.902
interaction score (O4-AA): 1.99
Binder: DEIAALEAKIAALKAENAALEAENAALEG [O3-AA]

interaction score (4H3049-AA): -0.982
interaction score (4H3905-AA): 1.91
interaction score (O11-AA): 0.766
interaction score (4H_BCR): -2.06
interaction score (GCN2_T): -1.24
interaction score (4H3590-AA): 2.23
interaction score (4H2888-AA): 1.12
interaction score (4H3625-AA): 1.63
interaction score (4H43-AA): 1.89
interaction score (4H3587-AA): 1.25
interaction score (4H337-AA): 1.21
interaction score (O13-AA): -0.966
interaction score (4H_APH): -2.17
interaction score (4H451-AA): -0.857
interaction score (4H_GCN4): -1.53
interaction score (4H384-AA): -0.941
interaction score (O14-AA): 1.71
interaction score (4H510-AA): -1.56
interaction score (4H4038-AA): 0.103
Binder: DKIAALKAKIAALKAEIAALEAKNAALKG [4H2888-AA]
